Measured values taken from paper PMC9486808.
Read-outs that look alike come from different tables or passages of the source.

Experiments:
Assay in all cases: fluorescence polarisation
[1] = target: S3-FAM: Cyclo(Ac-y…)pa[…]-NH2
[2] = target: S5-FAM: Cyclo(Ac-y…)pa[…]-NH2
[3] = target: L4-FAM: Cyclo(Ac-…)pa[…]-NH2
[4] = target: S3-FAM: Cyclo(Ac-y…)pa[…]-NH2; remark: listed apart in the source
[5] = target: S5-FAM: Cyclo(Ac-y…)pa[…]-NH2; remark: listed apart in the source
[6] = target: L4-FAM: Cyclo(Ac-…)pa[…]-NH2; remark: listed apart in the source
[7] = target: L2-FAM: Cyclo(Ac-…)LFAApa[…]-NH2

For “Recombinant soluble trimeric H1 HA ectodomain of A/California/04/2009 (H1N1), fused to GCN4 trimeriz (domain or fragment)”, the Kd [1] was 0.8 nM, the Kd [2] was 0.6 nM and the Kd [3] was 0.6 nM. For the same substance, the Kd [4] was 1.3 nM, the Kd [5] was 1 nM and the Kd [6] was 1.1 nM. The Kd [7] was 2.4 nM.
